Columns and labels:
[1] = target: T1, FcγRIIa R (human, UniProt P12318 34-217); assay: SPR (Biacore T100); He/Con_2aR divided by He/Con_2b (FcγRIIa R over FcγRIIb)
T1 construct: extracellular domain; also called FcgRIIa R; FcγRIIa type R; not shown: His tag at the C terminus
T1 sequence (looked up): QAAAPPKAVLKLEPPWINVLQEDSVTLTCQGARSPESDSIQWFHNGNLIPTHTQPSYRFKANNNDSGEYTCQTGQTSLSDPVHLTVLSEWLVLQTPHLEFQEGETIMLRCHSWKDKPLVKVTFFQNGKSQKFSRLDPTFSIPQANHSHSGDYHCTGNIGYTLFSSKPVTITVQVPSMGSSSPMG
Description: (§1) The heterodimerized antibodies He Abs in which one of the H chains was introduced with an alteration were assayed for their binding activities to each activating FcγR and inhibitory FcγR according to the method described in Example 4. […] The activating FcγRs in FIGS. 26, 27, 28, and 29 are FcγRIa, FcγRIIa (R), FcγRIIa (H), and FcγRIIIa, respectively.
(§2) Analysis of interaction between objective antibody and the FcγR was carried out using Biacore T100 (GE Healthcare). HBS-EP+ (GE Healthcare) was used as the running buffer, and the measurement temperature was set to 25° C. Chips produced by immobilizing the antigen peptide by the amine coupling method to a Series S Sencor Chip CM5 (GE Healthcare), or alternatively, chips produced by allowing preliminarily biotinylated antigen peptides to interact with and immobilize onto a Series S Sensor Chip SA (certified) (GE Healthcare) were used. Antibodies of interest were captured onto an antigen peptide-immobilized chip, and allowed to interact to each FcγR diluted with running buffer. To regenerate and repeatedly use the chip, the antibodies captured on the chip were washed off by reacting 10 mM glycine-HCl, pH 1.5.

[2] = target: T1, FcγRIIa R; assay: SPR (Biacore T100), antibody captured on antigen peptide chip, FcγR as analyte; binding relative to GpH7-A5/GpH7-B3/GpL16-k0 = 100
Description: as §1, §2

[3] = target: T2, FcγRIIIa extracellular domain with C-terminal His tag (human, UniProt P08637 17-208); assay: SPR, binding relative to GpH7-A5/GpH7-B3/GpL16-k0 = 100
T2 construct: extracellular domain; also called 3a; FcgRIIIa
T2 sequence (P08637 17-208): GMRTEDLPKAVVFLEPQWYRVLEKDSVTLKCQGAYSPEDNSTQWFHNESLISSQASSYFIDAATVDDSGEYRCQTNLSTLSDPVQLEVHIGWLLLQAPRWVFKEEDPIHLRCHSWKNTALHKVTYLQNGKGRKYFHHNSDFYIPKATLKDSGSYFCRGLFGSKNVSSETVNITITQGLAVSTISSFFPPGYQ
Description: as §1, §2

[4] = target: T3, FcγRIIb extracellular domain with C-terminal His tag (human, UniProt P31994 43-217); assay: as above
T3 construct: extracellular domain; also called 2b; FcgRIIb
T3 sequence (looked up): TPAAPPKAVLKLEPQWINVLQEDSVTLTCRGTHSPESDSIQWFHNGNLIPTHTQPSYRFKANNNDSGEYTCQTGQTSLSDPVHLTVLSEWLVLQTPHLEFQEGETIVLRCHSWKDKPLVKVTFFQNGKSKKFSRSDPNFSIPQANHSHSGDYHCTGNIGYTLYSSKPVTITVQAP
Description: as §1, §2

[5] = target: T2, FcγRIIIa extracellular domain with …; assay: SPR; ratio of He/Con_3a (FcγRIIIa) to He/Con_2b (FcγRIIb)
Description: as §1, §2

He_2aR/2b (IIaR/IIb) [1] | He/Con_2aR (IIaR binding) [2] | He/Con_3a [3] | He/Con_2b [4] | He_3a/2b (IIIa/IIb) [5] | Binder
1.9 ratio | 17.1 % of control | – | – | – | GpH7-A5/GpH7-B3 variant G237_11K/GpL16-k0 (antibody, human IgG1, kappa, Heterodimerized anti-glypican-3 IgG1; mutation in one H chain only; also called He Ab) heavy 1: not shown heavy 2: not shown light: DIVMTQSPLSLPVTPGEPASISCQASESLVHSNRNTYLHWYLQKPGQSPQLLIYKVSNRFSGVPDRFSGSGSGTDFTLKISRVEAEDVGVYYCSQNTHVPPTFGQGTKVEIERTVAAPSVFIFPPSDEQLKSGTASVVCLLNNFYPREAKVQWKVDNALQSGNSQESVTEQDSKDSTYSLSSTLTLSKADYEKHKVYACEVTHQGLSSPVTKSFNRGEC
2.47 ratio | 24.2 % of control | – | – | – | GpH7-A5/GpH7-B3 variant G237_12R/GpL16-k0 (antibody, human IgG1, kappa, Heterodimerized anti-glypican-3 IgG1; mutation in one H chain only; also called He Ab) heavy 1: not shown heavy 2: not shown light: DIVMTQSPLSLPVTPGEPASISCQASESLVHSNRNTYLHWYLQKPGQSPQLLIYKVSNRFSGVPDRFSGSGSGTDFTLKISRVEAEDVGVYYCSQNTHVPPTFGQGTKVEIERTVAAPSVFIFPPSDEQLKSGTASVVCLLNNFYPREAKVQWKVDNALQSGNSQESVTEQDSKDSTYSLSSTLTLSKADYEKHKVYACEVTHQGLSSPVTKSFNRGEC
– | – | 80.3 % of control | 65.7 % of control | 1.22 | GpH7-A5/GpH7-B3 variant H268_06M/GpL16-k0 (antibody, human IgG1, kappa, also called He Ab) heavy 1: not shown heavy 2: not shown light: DIVMTQSPLSLPVTPGEPASISCQASESLVHSNRNTYLHWYLQKPGQSPQLLIYKVSNRFSGVPDRFSGSGSGTDFTLKISRVEAEDVGVYYCSQNTHVPPTFGQGTKVEIERTVAAPSVFIFPPSDEQLKSGTASVVCLLNNFYPREAKVQWKVDNALQSGNSQESVTEQDSKDSTYSLSSTLTLSKADYEKHKVYACEVTHQGLSSPVTKSFNRGEC
– | – | 91.4 % of control | 73.1 % of control | 1.25 | GpH7-A5/GpH7-B3 variant L234_03V/GpL16-k0 (antibody, human IgG1, kappa, also called He Ab) heavy 1: not shown heavy 2: not shown light: DIVMTQSPLSLPVTPGEPASISCQASESLVHSNRNTYLHWYLQKPGQSPQLLIYKVSNRFSGVPDRFSGSGSGTDFTLKISRVEAEDVGVYYCSQNTHVPPTFGQGTKVEIERTVAAPSVFIFPPSDEQLKSGTASVVCLLNNFYPREAKVQWKVDNALQSGNSQESVTEQDSKDSTYSLSSTLTLSKADYEKHKVYACEVTHQGLSSPVTKSFNRGEC
– | – | 41.2 % of control | – | 4.29 | GpH7-A5/GpH7-B3 variant L235_12R/GpL16-k0 (antibody, human IgG1, kappa, also called He Ab) heavy 1: not shown heavy 2: not shown light: DIVMTQSPLSLPVTPGEPASISCQASESLVHSNRNTYLHWYLQKPGQSPQLLIYKVSNRFSGVPDRFSGSGSGTDFTLKISRVEAEDVGVYYCSQNTHVPPTFGQGTKVEIERTVAAPSVFIFPPSDEQLKSGTASVVCLLNNFYPREAKVQWKVDNALQSGNSQESVTEQDSKDSTYSLSSTLTLSKADYEKHKVYACEVTHQGLSSPVTKSFNRGEC

Continued, binder first:

Binder | He_2aR/2b (IIaR/IIb) [1] | He/Con_2aR (IIaR binding) [2] | He/Con_3a [3] | He/Con_2b [4] | He_3a/2b (IIIa/IIb) [5]
GpH7-A5/GpH7-B3 variant E269_01G/GpL16-k0 (antibody, human IgG1, kappa, also called He Ab) heavy 1: not shown heavy 2: not shown light: DIVMTQSPLSLPVTPGEPASISCQASESLVHSNRNTYLHWYLQKPGQSPQLLIYKVSNRFSGVPDRFSGSGSGTDFTLKISRVEAEDVGVYYCSQNTHVPPTFGQGTKVEIERTVAAPSVFIFPPSDEQLKSGTASVVCLLNNFYPREAKVQWKVDNALQSGNSQESVTEQDSKDSTYSLSSTLTLSKADYEKHKVYACEVTHQGLSSPVTKSFNRGEC | – | – | 62.2 % of control | 51.5 % of control | 1.21
GpH7-A5/GpH7-B3 variant E269_02A/GpL16-k0 (antibody, human IgG1, kappa, also called He Ab) heavy 1: not shown heavy 2: not shown light: DIVMTQSPLSLPVTPGEPASISCQASESLVHSNRNTYLHWYLQKPGQSPQLLIYKVSNRFSGVPDRFSGSGSGTDFTLKISRVEAEDVGVYYCSQNTHVPPTFGQGTKVEIERTVAAPSVFIFPPSDEQLKSGTASVVCLLNNFYPREAKVQWKVDNALQSGNSQESVTEQDSKDSTYSLSSTLTLSKADYEKHKVYACEVTHQGLSSPVTKSFNRGEC | – | – | 68.7 % of control | 49.9 % of control | 1.38
GpH7-A5/GpH7-B3 variant G236_03V/GpL16-k0 (antibody, human IgG1, kappa, also called He Ab) heavy 1: not shown heavy 2: not shown light: DIVMTQSPLSLPVTPGEPASISCQASESLVHSNRNTYLHWYLQKPGQSPQLLIYKVSNRFSGVPDRFSGSGSGTDFTLKISRVEAEDVGVYYCSQNTHVPPTFGQGTKVEIERTVAAPSVFIFPPSDEQLKSGTASVVCLLNNFYPREAKVQWKVDNALQSGNSQESVTEQDSKDSTYSLSSTLTLSKADYEKHKVYACEVTHQGLSSPVTKSFNRGEC | – | – | 57.7 % of control | 35.3 % of control | 1.64
GpH7-A5/GpH7-B3 variant G236_04F/GpL16-k0 (antibody, human IgG1, kappa, also called He Ab) heavy 1: not shown heavy 2: not shown light: DIVMTQSPLSLPVTPGEPASISCQASESLVHSNRNTYLHWYLQKPGQSPQLLIYKVSNRFSGVPDRFSGSGSGTDFTLKISRVEAEDVGVYYCSQNTHVPPTFGQGTKVEIERTVAAPSVFIFPPSDEQLKSGTASVVCLLNNFYPREAKVQWKVDNALQSGNSQESVTEQDSKDSTYSLSSTLTLSKADYEKHKVYACEVTHQGLSSPVTKSFNRGEC | – | – | 87 % of control | 39.3 % of control | 2.21
GpH7-A5/GpH7-B3 variant G236_05P/GpL16-k0 (antibody, human IgG1, kappa, also called He Ab) heavy 1: not shown heavy 2: not shown light: DIVMTQSPLSLPVTPGEPASISCQASESLVHSNRNTYLHWYLQKPGQSPQLLIYKVSNRFSGVPDRFSGSGSGTDFTLKISRVEAEDVGVYYCSQNTHVPPTFGQGTKVEIERTVAAPSVFIFPPSDEQLKSGTASVVCLLNNFYPREAKVQWKVDNALQSGNSQESVTEQDSKDSTYSLSSTLTLSKADYEKHKVYACEVTHQGLSSPVTKSFNRGEC | – | – | 37.1 % of control | 19 % of control | 1.95
GpH7-A5/GpH7-B3 variant G236_07I/GpL16-k0 (antibody, human IgG1, kappa, also called He Ab) heavy 1: not shown heavy 2: not shown light: DIVMTQSPLSLPVTPGEPASISCQASESLVHSNRNTYLHWYLQKPGQSPQLLIYKVSNRFSGVPDRFSGSGSGTDFTLKISRVEAEDVGVYYCSQNTHVPPTFGQGTKVEIERTVAAPSVFIFPPSDEQLKSGTASVVCLLNNFYPREAKVQWKVDNALQSGNSQESVTEQDSKDSTYSLSSTLTLSKADYEKHKVYACEVTHQGLSSPVTKSFNRGEC | – | – | 59.7 % of control | 31 % of control | 1.93
GpH7-A5/GpH7-B3 variant G236_08L/GpL16-k0 (antibody, human IgG1, kappa, also called He Ab) heavy 1: not shown heavy 2: not shown light: DIVMTQSPLSLPVTPGEPASISCQASESLVHSNRNTYLHWYLQKPGQSPQLLIYKVSNRFSGVPDRFSGSGSGTDFTLKISRVEAEDVGVYYCSQNTHVPPTFGQGTKVEIERTVAAPSVFIFPPSDEQLKSGTASVVCLLNNFYPREAKVQWKVDNALQSGNSQESVTEQDSKDSTYSLSSTLTLSKADYEKHKVYACEVTHQGLSSPVTKSFNRGEC | – | – | 32.5 % of control | 26.8 % of control | 1.21
GpH7-A5/GpH7-B3 variant G236_12R/GpL16-k0 (antibody, human IgG1, kappa, also called He Ab) heavy 1: not shown heavy 2: not shown light: DIVMTQSPLSLPVTPGEPASISCQASESLVHSNRNTYLHWYLQKPGQSPQLLIYKVSNRFSGVPDRFSGSGSGTDFTLKISRVEAEDVGVYYCSQNTHVPPTFGQGTKVEIERTVAAPSVFIFPPSDEQLKSGTASVVCLLNNFYPREAKVQWKVDNALQSGNSQESVTEQDSKDSTYSLSSTLTLSKADYEKHKVYACEVTHQGLSSPVTKSFNRGEC | – | – | 12.5 % of control | 6.8 % of control | 1.84
GpH7-A5/GpH7-B3 variant G236_15Y/GpL16-k0 (antibody, human IgG1, kappa, also called He Ab) heavy 1: not shown heavy 2: not shown light: DIVMTQSPLSLPVTPGEPASISCQASESLVHSNRNTYLHWYLQKPGQSPQLLIYKVSNRFSGVPDRFSGSGSGTDFTLKISRVEAEDVGVYYCSQNTHVPPTFGQGTKVEIERTVAAPSVFIFPPSDEQLKSGTASVVCLLNNFYPREAKVQWKVDNALQSGNSQESVTEQDSKDSTYSLSSTLTLSKADYEKHKVYACEVTHQGLSSPVTKSFNRGEC | – | – | 121 % of control | 39.5 % of control | 3.06
GpH7-A5/GpH7-B3 variant G236_16H/GpL16-k0 (antibody, human IgG1, kappa, also called He Ab) heavy 1: not shown heavy 2: not shown light: DIVMTQSPLSLPVTPGEPASISCQASESLVHSNRNTYLHWYLQKPGQSPQLLIYKVSNRFSGVPDRFSGSGSGTDFTLKISRVEAEDVGVYYCSQNTHVPPTFGQGTKVEIERTVAAPSVFIFPPSDEQLKSGTASVVCLLNNFYPREAKVQWKVDNALQSGNSQESVTEQDSKDSTYSLSSTLTLSKADYEKHKVYACEVTHQGLSSPVTKSFNRGEC | – | – | 43.1 % of control | 27.9 % of control | 1.54
GpH7-A5/GpH7-B3 variant G236_20W/GpL16-k0 (antibody, human IgG1, kappa, also called He Ab; GpH7-A5/GpH7-B3-03-20W/GpL16-k0) heavy 1: not shown heavy 2: not shown light: DIVMTQSPLSLPVTPGEPASISCQASESLVHSNRNTYLHWYLQKPGQSPQLLIYKVSNRFSGVPDRFSGSGSGTDFTLKISRVEAEDVGVYYCSQNTHVPPTFGQGTKVEIERTVAAPSVFIFPPSDEQLKSGTASVVCLLNNFYPREAKVQWKVDNALQSGNSQESVTEQDSKDSTYSLSSTLTLSKADYEKHKVYACEVTHQGLSSPVTKSFNRGEC | – | – | 135 % of control | 58.2 % of control | 2.33

Source: patent US20150344570A1 (published 2015)
